Results reported in patent US20220048990A1.

Tests used:
[1] = molecular target: T1, Mouse polymeric immunoglobulin receptor (mouse) (UniProt O70570); assay: SPR (Biacore); panel shown again on D00107
T1 sequence (looked up): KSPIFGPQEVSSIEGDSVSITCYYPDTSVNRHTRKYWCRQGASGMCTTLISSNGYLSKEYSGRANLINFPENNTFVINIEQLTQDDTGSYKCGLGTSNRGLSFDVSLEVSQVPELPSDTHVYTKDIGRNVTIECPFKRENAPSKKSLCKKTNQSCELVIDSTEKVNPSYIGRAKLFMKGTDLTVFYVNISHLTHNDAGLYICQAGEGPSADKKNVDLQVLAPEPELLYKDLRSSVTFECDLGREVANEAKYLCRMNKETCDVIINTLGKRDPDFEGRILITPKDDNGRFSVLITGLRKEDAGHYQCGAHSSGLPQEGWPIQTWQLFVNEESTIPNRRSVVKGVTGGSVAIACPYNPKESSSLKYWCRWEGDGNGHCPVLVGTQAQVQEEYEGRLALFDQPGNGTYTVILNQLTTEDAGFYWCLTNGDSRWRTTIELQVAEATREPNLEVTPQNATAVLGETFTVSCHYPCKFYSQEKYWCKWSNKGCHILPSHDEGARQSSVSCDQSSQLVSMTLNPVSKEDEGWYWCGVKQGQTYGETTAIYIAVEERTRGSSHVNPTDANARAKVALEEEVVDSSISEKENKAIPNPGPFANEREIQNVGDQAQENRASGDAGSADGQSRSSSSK

[2] = molecular target: Human polymeric immunoglobulin receptor (human) (UniProt P01833); assay: SPR (Biacore)
[3] = molecular target: T1, Mouse polymeric immunoglobulin receptor (mouse); assay: SPR (Biacore)
Human FcαRI (human) = Human FcαRI (human) (UniProt P24071); assay: Wasatch array SPR, antibody immobilised, n>=3
UniProt P24071, sequence (P24071 22-227 limits assumed): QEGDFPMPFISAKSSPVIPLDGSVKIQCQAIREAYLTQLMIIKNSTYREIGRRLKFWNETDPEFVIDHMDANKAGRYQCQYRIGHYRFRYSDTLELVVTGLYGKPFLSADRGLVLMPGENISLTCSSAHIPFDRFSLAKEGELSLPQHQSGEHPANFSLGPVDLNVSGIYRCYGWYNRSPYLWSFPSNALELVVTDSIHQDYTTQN

UniProt P01833, sequence (P01833 19-638 limits assumed): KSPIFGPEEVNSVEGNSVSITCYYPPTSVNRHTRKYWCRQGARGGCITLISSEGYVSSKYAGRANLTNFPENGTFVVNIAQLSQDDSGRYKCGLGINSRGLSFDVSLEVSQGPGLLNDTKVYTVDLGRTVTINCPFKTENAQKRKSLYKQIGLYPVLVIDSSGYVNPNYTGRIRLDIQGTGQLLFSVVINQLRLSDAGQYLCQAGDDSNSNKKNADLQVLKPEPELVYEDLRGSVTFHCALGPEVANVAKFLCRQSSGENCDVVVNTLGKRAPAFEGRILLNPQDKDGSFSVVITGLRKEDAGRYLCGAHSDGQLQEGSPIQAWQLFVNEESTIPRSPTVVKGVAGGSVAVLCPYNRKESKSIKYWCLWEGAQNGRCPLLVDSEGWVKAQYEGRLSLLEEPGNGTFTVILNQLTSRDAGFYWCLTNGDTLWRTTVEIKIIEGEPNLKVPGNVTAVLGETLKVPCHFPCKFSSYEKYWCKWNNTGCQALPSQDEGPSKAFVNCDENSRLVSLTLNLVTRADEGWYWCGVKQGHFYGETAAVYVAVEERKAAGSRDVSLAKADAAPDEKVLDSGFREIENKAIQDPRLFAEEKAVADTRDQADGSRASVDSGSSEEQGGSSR

Substance	Kd [1] [nM]	Kd [2] [nM]	Kd [3] [nM]	Kd (Human FcαRI (human)) [nM]
Glycosylated IgA2m2.Fc only Tetramer	0.79	0.98	0.79	–
Human serum IgA monomer (antibody)	–	–	–	1750
